Publication doi:10.1101/2025.02.20.639385

Target: MBP-RAB23T22N (Chlamydomonas reinhardtii)
Test: SEC

Substance: RAB18S22N (bacterially expressed, 6×His-tag removed) (natural protein)
- stoichiometry N: 1
